Results on 2 molecules are retold here after paper PMC7824358, “The Influence of the Mixed DPC:SDS Micelle on the Structure and Oligomerization Process of the Human Cystatin C” (Membranes, 2020).

For series [1], the target named is human cystatin C V57P variant (human) (UniProt P01034). Kind of series: SEC; analytical gel filtration, Superdex 75 PC 3.2/30, eluted with PBS; protein 30 μM in PBS incubated 24 h at 22 °C with dilution series of DPC:SDS (5:1) mixed micelle, DPC or SDS; dimer retention ca. 13.5 min, monomer ca. 16 min; dimer to monomers. (In gel filtration, larger molecules generally elute earlier.)

Series [2] deals with the molecule itself. Kind of series: SEC; hCC WT incubated 24 h in 25 mM sodium acetate buffer pH 4.0, 150 mM NaCl, 1 mM benzamidine hydrochloride; dimer separated from monomer on Superdex 75 10/300 GL; monomer to dimer.

One may read the stoichiometry N as the number of molecules, sites or subunits per partner or assembly. “human cystatin C V57P variant (from UniProt P01034 27-146) (natural protein)” had a stoichiometry N in series [1] of 2.

B1: human cystatin C (hCC) wild-type (natural protein, UniProt P01034 27-146, looked up)
chain: SSPGKPPRLVGGPMDASVEEEGVRRALDFAVGEYNKASNDMYHSRALQVVRARKQIVAGVNYFLDVELGRTTCTKTQPNLDNCPFHDQPHLKRKAFCSFQIYAVPWQGTMTLSKSTCQDA
notes: human cystatin C, expressed from the pHD313 vector behind the E. coli OmpA signal peptide; Used as a monomer sample and as a dimer sample made by incubation at pH 4.0 and separated by SEC; also called hCC WT; WT
Turning to B1, the “stoichiometry N” value in series [2] is 2.
